Experimental data: patent CN102952191A

Target: 基因重组表达的CD33胞外区 (recombinant CD33 extracellular domain) (human) (UniProt P20138)
Assay: phage ELISA, CD33-ECD coated, HRP/anti-M13 detection

Chain of UniProt P20138 (P20138 18-259): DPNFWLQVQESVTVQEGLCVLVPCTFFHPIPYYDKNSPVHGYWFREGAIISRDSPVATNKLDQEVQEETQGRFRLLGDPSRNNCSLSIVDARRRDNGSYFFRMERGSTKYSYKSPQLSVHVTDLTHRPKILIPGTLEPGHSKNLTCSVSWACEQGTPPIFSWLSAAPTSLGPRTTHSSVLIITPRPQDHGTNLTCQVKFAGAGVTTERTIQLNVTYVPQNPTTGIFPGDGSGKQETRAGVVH

B1: 噬菌体展示的单链抗体ZJL101 (phage-displayed scFv ZJL101; phage clones No. 3 and No. 4, identical inserts) (scFv, not shown: large carriers)
scFv: MAQVQLVQSGTVVKKPGSSVKVSCKTSGGTLPNHAINWVRQASGQGLEWMGWMSPNTGDTGYARKFQGRVTMTRDTSISTAYMELSSLRSDDTAIYYCATGDPRVGHSWGQGTLVTVSSGGGGSGGGGSGGGGSDIQMTQSPPSLSASVGDRVTITCRASQTIGSHLNWYQQKPGKAPKLLITGASSLQSGVPARFTGSGFGTDFTLTISSLQVEDLATYSCQQTYNTPRTFGQGTKVEIK
In the case of B1, the OD450nm is reported as 1.6 OD450nm.
